The record followed here is US20260242485A1 (LEPU BIOPHARMA, published 2026).

Where a chain is given by its changes, count along the chain named.

Assay [1] has as its target T1, hCD16A-158V-his protein (human, UniProt P08637 17-208).
T1 construct: extracellular domain; Bought protein; also called human CD16A-158V-his; Human CD16A-158V (protein)
The experiment in a line: ELISA, plate-coated his-tagged antigen 2 ug/mL. The procedure:
(§1) In order to determine the binding ability of the chimeric Abs to human CD16A protein, ELISA-based binding assay was performed as followed. […] The mixture was incubated for 1 hour at room temperature (RT). The primary antibody was recognized by a detective antibody against human IgG Fc which was conjugated with horseradish peroxidase (HRP) (Jackson Immuno, Cat. No. 109-035-008). Tetramethylbenzidine (TMB), a substrate of HRP, was added to the wells to visualize the binding signal. After sufficient color development, stop solution was added to the wells. The absorbance of the signal was detected at 450 nm with Envision multilabel plate readers (PerkinElemer). The graph and statistics analysis were generated with four-parameter nonlinear regression curve fit in Graphpad Prism 9 software.
(§2) In order to determine the cross reactivity of the chimeric Abs to cynomolgus CD16, ELISA binding assay was performed as described above. Recombinant cyno CD16 ECD his tag protein (cynoCD16-his, Acro Bio, Cat. No. FC6-C52H9) was used as the coating antigen at 2 μg/mL.

Assay [2] has as its target T2, hCD16A-158F-his protein (human, UniProt P08637 17-208).
T2 construct: Bought protein
Briefly: ELISA, plate-coated his-tagged antigen 2 ug/mL. The procedure: as §1, §2

Assay [3] deals with T1, hCD16A-158V-his protein. Briefly: SPR (Biacore 8K), antibody captured on Protein A chip, antigen at 50 nM. The procedure: (§3) The binding affinity of the chimeric antibodies to human CD16A was determined with Biacore™. Briefly, the antibodies were captured with a Protein A chip. […] The antigen was allowed to dissociate for 500 s. The experiment was carried out on a Biacore™ 8K. Data analysis was carried out using Biacore™ 8K evaluation software.

Assay [4] addresses T2, hCD16A-158F-his protein. The description is as above. Here is the method: as §3
Assay [5] concerns the target T3, human CD16B-NA1 ECD his tag protein (human, UniProt O75015 17-200).
T3 construct: extracellular domain; Bought protein; also called hCD16B-NA1-his; hCD16B-NA1 protein
The experiment in a line: ELISA, hCD16B-NA1-his coated at 2 ug/mL, OD450. The procedure:
as §1
(§4) In order to determine the binding ability of the chimeric Abs to human CD16B protein, ELISA binding assay was performed as previously described. Three spliced isoforms of CD16B including human CD16B-NA1 ECD his tag protein (hCD16B-NA1-his, Acro Bio, Cat: No. CDB-H5227), human CD16B-NA2 ECD his tag protein (hCD16B-NA2-his, Acro Bio, Cat: No. CDB-H82Ea) and human CD16B-SH-his protein, were used as the coating antigens at 2 μg/mL.

Assay [6] concerns the target T4, human CD16B-NA2 ECD his tag protein (human, UniProt O75015 17-200).
T4 construct: extracellular domain; Bought protein; also called hCD16B-NA2-his; hCD16B-NA2 protein
Briefly: ELISA, hCD16B-NA2-his coated at 2 ug/mL, OD450. The procedure: as §1, §4

The target of assay [7] is T5, human CD32B expressed on CHO-K1 cells (human, UniProt P31994 43-310).
T5 construct: whole, on cells; also called hCD32B
T5 sequence (looked up): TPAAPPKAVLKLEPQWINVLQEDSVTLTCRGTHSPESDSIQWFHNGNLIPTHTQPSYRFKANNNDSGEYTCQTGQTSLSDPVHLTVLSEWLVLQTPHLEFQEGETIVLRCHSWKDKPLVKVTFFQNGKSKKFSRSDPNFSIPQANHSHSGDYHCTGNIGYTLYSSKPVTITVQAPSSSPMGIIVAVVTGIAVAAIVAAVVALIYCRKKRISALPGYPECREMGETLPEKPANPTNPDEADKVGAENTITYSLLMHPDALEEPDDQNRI
Briefly: flow cytometry, CHO-K1-hCD32B cells, geometric mean. The procedure:
(§5) In order to evaluate the binding activity of the chimeric mAbs to human CD16A expressed on cells, cell-based binding assay was employed as followed. […] The antibody dilutions were incubated with 1×10⁵ indicated cells in the 96-well microplate for one hour at 4° C. The antibodies binding to the antigen on the cell surface were detected with PE fluorophore-conjugated anti-human IgG Fc secondary antibodies (ThermoFisher scientific, Cat. No. 12-4998-82) at a dilution rate of 1:1000. Cells were analyzed by flow cytometer LSRFortessa Cell Analyzer (BD Biosciences). Data were analyzed with Flowjo 10.0 software. The graph and statistics analysis were generated with four-parameter nonlinear regression curve fit in Graphpad Prism 9 software.
(§6) To exclude the non-specific binding of the CD16A chimeric antibody to human CD16B and CD32B expressed on cells, cell-based binding assay was performed as described above. Firstly, CHO-K1 cells were stably transferred with one human CD16B spliced isoform hCD16B-NA1 and human CD32B. Then, the cells were incubated with the indicated concentrations of CD16A chimeric antibodies.

Assay [8] concerns the target T6, human CD16A-158F expressed on CHO-K1 cells (human, UniProt P08637 17-254).
T6 construct: whole, on cells
The experiment in a line: flow cytometry on antigen-expressing CHO-K1 cells. The procedure:
as §5
(§7) CHO-K1 cells stably expressing cynomolgus CD16 were used in the following test.

Assay [9] addresses T7, human CD16A-158V expressed on CHO-K1 cells (human, UniProt P08637 17-254).
T7 construct: whole, on cells; also called hCD16A-158V; CHO-K1-hCD16A-158V
The experiment in a line: flow cytometry on antigen-expressing CHO-K1 cells. Here is the method: as §5, §7

In assay [10] the target is T8, human CD16B-NA1 expressed on CHO-K1 cells (human, UniProt O75015 17-200).
T8 construct: whole, on cells; also called hCD16B-NA1; CHO-K1-hCD16B-NA1
The experiment in a line: flow cytometry, CHO-K1-hCD16B-NA1 cells, geometric mean. The procedure:
as §5, §6

Assay [11] has as its target T9, human GPC3 on HepG2 cells (human, UniProt P51654 25-554).
T9 construct: whole, on cells; also called GPC3-positive HepG2 cells
The experiment in a line: flow cytometry, HepG2 cells (GPC3 positive), geometric mean.

For assay [12], the target named is T6, human CD16A-158F expressed on CHO-K1 …. The experiment in a line: flow cytometry, CHO-K1-hCD16A-158F cells, geometric mean.
Assay [13] deals with T7, human CD16A-158V expressed on CHO-K1 …. The experiment in a line: flow cytometry, CHO-K1-hCD16A-158V cells, geometric mean.

T6 sequence (P08637 17-254): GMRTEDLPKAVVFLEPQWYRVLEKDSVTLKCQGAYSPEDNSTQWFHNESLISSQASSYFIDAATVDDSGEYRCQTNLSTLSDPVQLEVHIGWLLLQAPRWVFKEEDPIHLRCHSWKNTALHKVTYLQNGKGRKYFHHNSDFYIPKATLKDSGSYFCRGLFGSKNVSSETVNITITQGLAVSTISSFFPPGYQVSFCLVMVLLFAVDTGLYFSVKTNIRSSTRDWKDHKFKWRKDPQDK
T2 sequence (P08637 17-208 limits assumed): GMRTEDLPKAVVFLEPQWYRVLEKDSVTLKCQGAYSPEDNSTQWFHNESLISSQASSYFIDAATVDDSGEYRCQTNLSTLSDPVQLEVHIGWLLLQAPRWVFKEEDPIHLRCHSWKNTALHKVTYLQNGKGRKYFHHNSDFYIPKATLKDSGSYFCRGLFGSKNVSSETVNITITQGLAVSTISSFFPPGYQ
T1 sequence (P08637 17-208 F176V): as the sequence (P08637 17-208 limits assumed) above, with F160V counted along it
T7 sequence (P08637 17-254 F176V): as the sequence (P08637 17-254) above, with F160V counted along it
T4 sequence (O75015 17-200 N65S limits assumed): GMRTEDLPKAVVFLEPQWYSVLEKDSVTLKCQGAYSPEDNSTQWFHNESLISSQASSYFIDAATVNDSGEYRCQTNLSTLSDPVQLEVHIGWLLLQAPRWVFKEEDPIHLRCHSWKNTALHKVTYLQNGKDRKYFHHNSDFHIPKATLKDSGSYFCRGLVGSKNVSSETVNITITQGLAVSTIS
T9 sequence (P51654 25-554 limits assumed): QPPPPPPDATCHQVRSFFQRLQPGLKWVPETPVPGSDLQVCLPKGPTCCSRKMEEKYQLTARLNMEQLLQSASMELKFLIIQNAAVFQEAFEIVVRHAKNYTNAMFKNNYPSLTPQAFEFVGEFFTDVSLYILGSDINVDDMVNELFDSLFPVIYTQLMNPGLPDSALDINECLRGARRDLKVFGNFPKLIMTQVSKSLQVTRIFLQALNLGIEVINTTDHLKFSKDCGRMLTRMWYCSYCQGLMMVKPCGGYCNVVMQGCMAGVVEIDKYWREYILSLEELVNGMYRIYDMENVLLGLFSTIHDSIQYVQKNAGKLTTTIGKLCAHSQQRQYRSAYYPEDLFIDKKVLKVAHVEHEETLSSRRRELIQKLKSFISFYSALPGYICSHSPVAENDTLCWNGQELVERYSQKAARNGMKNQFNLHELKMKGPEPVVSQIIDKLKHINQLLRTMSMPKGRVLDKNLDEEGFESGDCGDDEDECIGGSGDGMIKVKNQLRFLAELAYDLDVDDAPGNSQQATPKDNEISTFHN
T8 sequence (O75015 other isoform, or with tags, fused parts or gaps): as the sequence (O75015 17-200 N65S limits assumed) above, with S20R, S49N, N66D, I90V counted along it
T3 sequence (O75015 other isoform, or with tags, fused parts or gaps limits assumed): as the sequence (O75015 17-200 N65S limits assumed) above, with S20R, S49N, N66D, I90V counted along it

B1: 91A11D11-hIgG1 LALAPG (antibody)
heavy: QVQLQQPGAELVRPGTSVKLSCKASGYTFTSYWMNWVKQRPGQGLEWIGMIDPSDSETHYNQMFKDKATLTVDESSSTAYMQLSSLTSEDSAVYFCARWTLVVAHFFDYWGQGTTLTVSSASTKGPSVFPLAPSSKSTSGGTAALGCLVKDYFPEPVTVSWNSGALTSGVHTFPAVLQSSGLYSLSSVVTVPSSSLGTQTYICNVNHKPSNTKVDKKVEPKSCDKTHTCPPCPAPEAAGGPSVFLFPPKPKDTLMISRTPEVTCVVVDVSHEDPEVKFNWYVDGVEVHNAKTKPREEQYNSTYRVVSVLTVLHQDWLNGKEYKCKVSNKALGAPIEKTISKAKGQPREPQVYTLPPSREEMTKNQVSLTCLVKGFYPSDIAVEWESNGQPENNYKTTPPVLDSDGSFFLYSKLTVDKSRWQQGNVFSCSVMHEALHNHYTQKSLSLSPGK
light: DIVLTQSPASLAVSLGQRATISCRASETVEYYGPSLLQWYQQKPGQPPKLLIYGASNVESGVPARFSGSGSGTDFSLNIHPVEEDDVAMYFCQQSRKVPYTFGGGTKLEIKRTVAAPSVFIFPPSDEQLKSGTASVVCLLNNFYPREAKVQWKVDNALQSGNSQESVTEQDSKDSTYSLSSTLTLSKADYEKHKVYACEVTHQGLSSPVTKSFNRGEC
notes: also called 91A11D11 chimeric Ab
For B1, the EC50 in [1] was determined as 0.12 nM; in assay [2], 0.41 nM; in assay [8], 0.46 nM; in assay [9], 0.45 nM. Moreover, the Kd in [3] came out at 0.223 nM; in [4] it was 0.138 nM. Also, the koff came to 0.00142 s⁻¹ in [3] and 0.00102 s⁻¹ in [4]. Besides, the kon in assay [3] is 6.93e+06 M⁻¹ s⁻¹; in assay [4], 7.39e+06 M⁻¹ s⁻¹. Further, the binding result was “no binding (tested: 20 nM)” in assay [5], “no binding (tested: 20 nM)” in [6], “no binding (tested: 100 nM)” in [7] and “no binding (tested: 100 nM)” in assay [10].

B2: 42F5H2-hIgG1 LALAPG (antibody)
heavy: QVQLQQPGAELVRPGASVKLSCKASGYTFTSYWMNWVKQRPGQGLEWIGMIDPSDSETHHNQMFKDKATLTVDKSSSTAYMQLSSLTSEDSAVYYCAKWLPPYAMDYWGQGTSVTVSSASTKGPSVFPLAPSSKSTSGGTAALGCLVKDYFPEPVTVSWNSGALTSGVHTFPAVLQSSGLYSLSSVVTVPSSSLGTQTYICNVNHKPSNTKVDKKVEPKSCDKTHTCPPCPAPEAAGGPSVFLFPPKPKDTLMISRTPEVTCVVVDVSHEDPEVKFNWYVDGVEVHNAKTKPREEQYNSTYRVVSVLTVLHQDWLNGKEYKCKVSNKALGAPIEKTISKAKGQPREPQVYTLPPSREEMTKNQVSLTCLVKGFYPSDIAVEWESNGQPENNYKTTPPVLDSDGSFFLYSKLTVDKSRWQQGNVFSCSVMHEALHNHYTQKSLSLSPGK
light: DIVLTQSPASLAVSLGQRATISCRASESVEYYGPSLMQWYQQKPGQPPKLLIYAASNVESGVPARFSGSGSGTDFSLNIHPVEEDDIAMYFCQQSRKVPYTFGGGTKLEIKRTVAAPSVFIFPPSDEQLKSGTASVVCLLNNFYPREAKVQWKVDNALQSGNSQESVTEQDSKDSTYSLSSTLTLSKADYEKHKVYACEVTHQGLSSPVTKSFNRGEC
notes: also called 42F5H2 chimeric Ab
Regarding B2, the 50% effective concentration (EC50) in [1] came out at 0.11 nM; in assay [2] it was 0.42 nM; in assay [8] it was 0.5 nM; in assay [9], 0.47 nM. Moreover, the values for the dissociation constant (Kd) in assay [3] and in assay [4] were 0.303 nM and 0.226 nM, respectively. The koff in [3] was determined as 0.00139 s⁻¹; in assay [4], 0.000873 s⁻¹. In addition, the results for the kon in assay [3] and in [4] were 4.59e+06 M⁻¹ s⁻¹ and 3.86e+06 M⁻¹ s⁻¹, respectively. Moreover, the binding result in [5] is “no binding (tested: 20 nM)”; in [6] it was “no binding (tested: 20 nM)”; in [7], “no binding (tested: 100 nM)”; in [10] it was “no binding (tested: 100 nM)”.

B3: GPC3-45H6E8-z19p1-hIgG1LALAPG (bispecific antibody)
heavy chain (anti-GPC3 heavy chain hIgG1 LALAPG, (G4S)4 linker, 45H6E8-z19p1 scFv): QVQLVQSGAEVKKPGASVKVSCKASGYTFTDYEMHWVRQAPGQGLEWMGAIHPGSGGTAYNQKFKGRVTMTRDTSTSTVYMELSSLRSEDTAVYYCARYYSYAYWGQGTLVTVSSASTKGPSVFPLAPSSKSTSGGTAALGCLVKDYFPEPVTVSWNSGALTSGVHTFPAVLQSSGLYSLSSVVTVPSSSLGTQTYICNVNHKPSNTKVDKKVEPKSCDKTHTCPPCPAPEAAGGPSVFLFPPKPKDTLMISRTPEVTCVVVDVSHEDPEVKFNWYVDGVEVHNAKTKPREEQYNSTYRVVSVLTVLHQDWLNGKEYKCKVSNKALGAPIEKTISKAKGQPREPQVYTLPPSREEMTKNQVSLTCLVKGFYPSDIAVEWESNGQPENNYKTTPPVLDSDGSFFLYSKLTVDKSRWQQGNVFSCSVMHEALHNHYTQKSLSLSPGKGGGGSGGGGSGGGGSGGGGSQVQLVQSGAEVKKPGASVKVSCKVSGYTLTDYYMQWVRQAPGKGLEWIGWIDPEQGDTEYAPKFQGRVTMTADTSTDTAYMELSSLRSEDTAVYYCTTGGNYVDWGQGTTVTVSSGGGGSGGGGSGGGGSDIQMTQSPSFLSASVGDRVTITCKASQNVGTAVAWYQQKPGKAPKLLIYSASNRYTGVPDRFSGSGSGTDFTLTISSLQPEDFATYFCQQYSSYPLLTFGQGTRLEIK
light chain: DIVMTQTPLSLSVTPGQPASISCRSSQSLVHSNGNTYLQWYLQKPGQSPQLLIYKVSNRFSGVPDRFSGSGSGTDFTLKISRVEAEDVGVYYCFQSIHVPYTFGGGTKLEIKRTVAAPSVFIFPPSDEQLKSGTASVVCLLNNFYPREAKVQWKVDNALQSGNSQESVTEQDSKDSTYSLSSTLTLSKADYEKHKVYACEVTHQGLSSPVTKSFNRGEC
B3: the “EC50 (read off the curve)” value is around 0.3 nM in [11], around 2 nM in assay [12] and around 1 nM in assay [13].

B4: GPC3-45H6E8-z21p1-hIgG1LALAPG (bispecific antibody)
heavy chain (anti-GPC3 heavy chain hIgG1 LALAPG, (G4S)4 linker, 45H6E8-z21p1 scFv): B3 heavy chain (anti-GPC3 heavy chain hIgG1 LALAPG, (G4S)4 linker, 45H6E8-z19p1 scFv) with I513M
light chain: B3 light chain
As for B4, the “EC50 (read off the curve)” value in assay [11] was around 0.3 nM; in [12], around 2 nM; in assay [13] it was around 1 nM.
